The target of the assay is T1, human fibrinogen (human, UniProt P02671-2 20-644; P02675 31-491; P02679-2 27-437).
T1 construct: fibrinogen A-alpha chain, human; fibrinogen B-beta chain, human; fibrinogen gamma chain, human; Coated on MaxSorb ELISA plates; also called Fbgn; source: bought: Sigma; copies: 2 + 2 + 2
T1 sequence (looked up) 1: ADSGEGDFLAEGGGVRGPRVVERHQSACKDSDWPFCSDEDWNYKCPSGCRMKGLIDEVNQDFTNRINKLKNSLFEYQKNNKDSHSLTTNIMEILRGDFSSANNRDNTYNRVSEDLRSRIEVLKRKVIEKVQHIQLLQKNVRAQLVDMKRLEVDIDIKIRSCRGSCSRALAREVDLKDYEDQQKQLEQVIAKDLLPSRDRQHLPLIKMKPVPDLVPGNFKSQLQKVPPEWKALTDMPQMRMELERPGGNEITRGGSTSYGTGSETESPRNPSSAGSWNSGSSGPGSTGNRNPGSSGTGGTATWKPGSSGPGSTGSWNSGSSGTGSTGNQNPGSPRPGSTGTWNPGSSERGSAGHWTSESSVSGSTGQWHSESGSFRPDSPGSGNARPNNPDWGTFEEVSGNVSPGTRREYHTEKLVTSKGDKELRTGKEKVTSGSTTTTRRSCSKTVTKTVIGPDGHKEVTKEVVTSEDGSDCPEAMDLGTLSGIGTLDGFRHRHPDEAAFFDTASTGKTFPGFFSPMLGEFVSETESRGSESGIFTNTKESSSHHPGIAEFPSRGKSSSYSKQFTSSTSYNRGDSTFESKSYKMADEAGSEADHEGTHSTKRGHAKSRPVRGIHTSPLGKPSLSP
T1 sequence (looked up) 2: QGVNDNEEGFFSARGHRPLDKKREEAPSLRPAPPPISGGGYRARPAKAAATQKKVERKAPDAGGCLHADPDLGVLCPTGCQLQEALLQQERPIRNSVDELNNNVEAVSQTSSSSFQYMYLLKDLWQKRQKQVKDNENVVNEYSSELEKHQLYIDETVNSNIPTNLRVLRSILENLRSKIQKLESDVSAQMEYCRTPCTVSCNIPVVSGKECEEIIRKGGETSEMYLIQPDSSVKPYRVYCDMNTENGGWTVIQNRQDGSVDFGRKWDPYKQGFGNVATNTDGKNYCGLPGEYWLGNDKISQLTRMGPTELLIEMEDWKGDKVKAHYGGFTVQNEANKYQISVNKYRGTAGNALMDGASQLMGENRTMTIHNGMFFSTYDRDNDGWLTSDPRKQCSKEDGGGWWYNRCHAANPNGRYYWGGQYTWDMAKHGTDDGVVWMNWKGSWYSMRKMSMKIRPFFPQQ
T1 sequence (looked up) 3: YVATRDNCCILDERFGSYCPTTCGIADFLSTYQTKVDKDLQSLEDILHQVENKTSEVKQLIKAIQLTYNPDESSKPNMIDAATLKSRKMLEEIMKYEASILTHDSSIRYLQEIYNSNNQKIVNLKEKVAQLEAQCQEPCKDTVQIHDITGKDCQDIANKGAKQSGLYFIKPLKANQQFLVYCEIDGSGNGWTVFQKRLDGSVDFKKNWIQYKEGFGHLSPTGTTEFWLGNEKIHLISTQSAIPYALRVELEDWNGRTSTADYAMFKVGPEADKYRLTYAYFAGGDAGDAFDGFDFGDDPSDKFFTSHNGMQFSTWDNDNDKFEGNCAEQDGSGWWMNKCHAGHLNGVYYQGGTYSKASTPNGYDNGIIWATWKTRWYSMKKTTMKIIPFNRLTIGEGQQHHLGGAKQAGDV
As to the kind of experiment: ELISA; human fibrinogen coated overnight on MaxSorb 96-well plates, wells treated with PBS (fibrinogen) or 100 nM alpha-thrombin in 1% sodium-citrate/PBS for one hour at room temperature (fibrin); ClfA in 1% sodium-citrate added at increasing concentrations for one hour; bound ClfA detected with polyclonal anti-ClfA and anti-rabbit-HRP; non-linear regression, one-site saturation. Conditions: both partners purified.

B1: clumping factor A (ClfA), purified recombinant (natural protein)
chain: not shown
notes: clumping factor A (ClfA) of Staphylococcus aureus; strain Newman is the strain worked with; it would add an N-terminal His tag (surmised); also called His6-ClfA; source: E. coli BL21(DE3), purified (Ni-NTA)
On to B1, for which the affinity, expressed as Kd, was 395 ± 51.8 nM.
